Measured values from publication PMC4376263 (International Journal of Nanomedicine, 2015).
“And” between values parts separate entries of the source, which are not always exact repeats. Identical values can stand only once. Like-named read-outs stand apart in the source and are kept apart here.

Tests used:
[1] = test system: murine colon adenocarcinoma cell line CT26; experiment: In vitro cytotoxicity; type: cell-based; conditions: for fold more potent than CPT-11: ratio of IC50 values
[2] = test system: CT26 tumor xenograft; type: in vivo, BALB/c mice; conditions: for Body weight Final / Body weight Initial / IRT (inhibition ratio of the tumor) / Tumor weight Mean ± SD: n=8; for Histological section examination of tumor (H&E): day 14
[3] = Critical micelle concentration; type: physicochemical; conditions: aqueous medium, coumarin-6 probe
[4] = Particle size and zeta potential of micelles; type: physicochemical; conditions: 25°C, n=3
[5] = Drug-loading measurement; type: physicochemical; conditions: weight of SN38 / weight of prodrug, HPLC with UV detector, triplicate
[6] = Pharmacokinetic study after intravenous administration to SD rats; conditions: n=6; for Cmax of free SN38: free SN38 in plasma, intravenous 10 mg/kg (equivalent to SN38); for AUC0–24 of prodrug / Cmax of prodrug: prodrug form in plasma (equivalent to SN38); for AUC0–24 of prodrug / Cmax of prodrug / CL of prodrug / MRT0–24 of prodrug / T1/2 of prodrug: intravenous 10 mg/kg; for CL of prodrug / MRT0–24 of prodrug / T1/2 of prodrug: prodrug form in plasma
[7] = In vitro drug release by dialysis; type: physicochemical; conditions: by 48 hours, 37°C, pH 6.5 PBS, pH 7.4 PBS, 25% liver homogenate, 50% plasma; P<0.05
[8] = CT26 cells, 48 hours incubation, MTT, equivalent to SN38, mean ± SD, n=3
[9] = 1.25 mg/kg (equivalent to SN38) i.v. every 2 days for 2 weeks
[10] = 2.5 mg/kg (equivalent to SN38) i.v. every 2 days for 2 weeks

| Molecule | IC50 [1, 8] [nM] | fold more potent than CPT-11 ([1]; CT26 cells) [fold] | Body weight Final [2, 9] [g] | Body weight Initial [2, 9] [g] | IRT (inhibition ratio of the tumor) [2, 9] [%] | Tumor weight Mean ± SD [2, 9] [g] | Histological section examination of tumor (H&E) ([2]; 1.25 mg/kg) | Body weight Final [2, 10] [g] | Body weight Initial [2, 10] [g] | IRT (inhibition ratio of the tumor) [2, 10] | Tumor weight Mean ± SD [2, 10] [g] | Histological section examination of tumor (H&E) ([2]; 2.5 mg/kg) | CMC (critical micelle concentration) [3] [µg/mL] | mean particle size [4] [nm] | mean zeta potential [4] [mV] | drug loading [5] | Cmax of free SN38 [6] | AUC0–24 of prodrug [6] | Cmax of prodrug [6] | CL of prodrug [6] [mL/min/kg] | also measured |
| --- | --- | --- | --- | --- | --- | --- | --- | --- | --- | --- | --- | --- | --- | --- | --- | --- | --- | --- | --- | --- | --- |
| chitosan-(C10-OH)SN38 [CS-(10s)SN38] | 3500 | 13.3 | 24.6 ± 1.24 | 20.0 ± 1.73 | 27.7 | 2.37 ± 0.19 | Partial tumor tissue necrosis | 22.7 ± 1.96 | 20.4 ± 2.11 | 47.8 ^a, ^b % | 1.71 ± 0.21 | extensive tissue necrosis | 15 | 128.0±1.8 | 21.1±0.5 | 16.5%±0.7% | 3,057.78±637.61 μg/L | 89.84±8.01 ×10^3 μg⋅h/L | 46.89±6.56 ×10^3 μg/L | 1.83 ± 0.17 | MRT0–24 of prodrug [6]: 4.90 ± 0.66 h; T1/2 of prodrug [6]: 5.40 ± 1.29 h |
| chitosan-(C20-OH)SN38 [CS-(20s)SN38] | 1800 | 25.9 | 24.1 ± 1.31 | 20.6 ± 1.31 | 31 | 2.24 ± 0.27 | Partial tumor tissue necrosis | 21.5 ± 2.52 | 19.6 ± 1.57 | 64.7% and 64.7 ^a, ^c, ^d % | 1.15 ± 0.09 | extensive tissue necrosis | 12 | 122.4±1.1 | 22.3±0.4 | 17.4%±0.8% | 2,489.43±153.63 μg/L | 133.07±11.10 ×10^3 μg⋅h/L | 48.43±4.27 ×10^3 μg/L | 1.2 ± 0.17 | drug release compared with CS-(10s)SN38 [7]: slower drug release; MRT0–24 of prodrug [6]: 4.94 ± 1.58 h; T1/2 of prodrug [6]: 7.05 ± 2.04 h |
| CCc1c2c(nc3ccc(O)cc13)-c1cc3c(c(=O)n1C2)COC(=O)[C@]3(O)CC [SN38, 7-Ethyl-10-hydroxycamptothecin, reference compound] | – | – | – | – | – | – | – | – | – | – | – | – | – | – | – | – | – | – | – | – | IC50 ([1]; Mus musculus, CT26, 48 h): 20.4 ± 1.8 nM |
| CCc1c2c(nc3ccc(OC(=O)N4CCC(N5CCCCC5)CC4)cc13)-c1cc3c(c(=O)n1C2)COC(=O)[C@]3(O)CC [CPT-11, irinotecan, reference compound] | – | – | – | – | – | – | – | 23.6 ± 1.67 | 19.8 ± 1.73 | 23.5% | 2.51 ± 0.36 | Partial tumor tissue necrosis | – | – | – | – | – | – | – | – | IC50 ([1]; Mus musculus, CT26, 48 h): 46700 nM |
